Assay results as given in the supplement of paper PMC10567573.

B1: SETD8 (parent)
chain: KKAQGKTQQNRKLTDFYPVRRSSR
B2: ANKRD40 (parent)
chain: YQELLRVCCCELGVNPDQVEKIRK

Variants of: B1
Test: protein stability index of a GFP-peptide fusion (GPS, HEK-293T) (PSI 1-6); higher = more stable
Details: c terminus: a fixed tail appended
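Further: lentivirally expressed fusions sorted by FACS into six bins by GFP to DsRed ratio, PSI derived from sequencing read proportions per bin multiplied by bin number.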

Protein stability index, by site and new letter:
R21: V 3; P 2.7; W 2.57; A 2.52; M 3.63; D 3.23; C 2.23; E 3.17; G 2.9; S 3.25; K 2.66; T 2.23; N 3.2; I 3.33
P18: W 3.18; I 2.66; R 2.54; M 3.82; Q 1.74; N 1.86; L 3.36; T 3.77; Y 2.51
R24: Q 1.06; A 2.12; N 2.76; L 2.08; M 3.16; S 3.83; H 2.54; F 2.57; P 3.87; C 3.61; T 2.75
S22: P 2.89; A 2.92; Y 3.06; L 2.02; Q 2.37; M 3.38; G 2.42; T 2.63; H 1.38
S23: M 3.18; T 2.23; N 2.66; L 4.44; G 1.83; H 2.7; P 2.65; K 4.11; E 3.5; A 3.62; D 3.09; F 3.54; Y 3.04; R 2.16
V19: H 3.63; G 4.08; R 4.2; L 3.11; A 4.57; I 3.13; Q 3.49; C 3.26; F 2.42; T 2.72; N 3.29; W 2.09; M 3.01; Y 3.35; D 3.32; K 2.02; P 2.88; E 3.84
R20: F 2.63; P 4.13; K 1.93; V 3.67; T 1.92; Q 3.48; G 3.43; S 2; L 2.32; Y 2.25; N 2.83; C 2.78; D 3.66; W 3.22; M 2.94

Variants of: B2
Test: as above
Details: c terminus: a fixed tail appended

Protein stability index, by site and new letter:
L4: Y 2.38; I 2.58; H 3; N 2.55; Q 2.42; S 2.27; E 3.05; M 1.82; D 3.98; R 1.79; C 2.15; K 2.94; T 2.53; A 2.63
E3: D 1.59; K 1.96; Y 1.66; T 2.13; Q 1.59; N 2.09; F 1.76; R 1.21; H 2.01; A 1.52; I 1.57; S 2.26; P 2.21; M 1.64
R6: A 2.02; C 1.92
Q2: K 2.5; A 1.94; E 2.98; M 1.76; I 1.73; N 2.52; W 1.67; L 1.51; R 2.58; F 1.44; C 1.64; Y 1.86; P 2.08; S 1.57; D 2.47; H 1.77; G 2.08
Y1: E 3.69; D 3.49; T 2.53; V 1.15; R 2.16; P 1.6; F 1.99; W 1.29; H 3.27; A 2.96; I 1.78; N 3.55; K 1.96; L 1.51; S 2.65; Q 3.28; M 2.29; C 1.95
L5: I 1.77; A 2.5; M 2.41; Q 3.04; G 2.05; D 3.26; K 2.37; C 3.06; P 1.75; T 1.91; H 2.18; N 1.99
